The series deals with MS2 coat protein. Kind of series: apparent KD of MS2 coat protein; designed switch direction (-1 OFF switch, 1 ON switch): -1; higher = weaker reporter binding. A digest of the protocol: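 An oligonucleotide input, 200 uM small-molecule ligand, or no input was present during titration of SNAP-549-labelled MS2 coat protein, which was doubled from 0.7 or 1.5 nM to 3 µM. Designed RNA switches had been transcribed on Illumina chips by stalled E. coli RNA polymerase. Apparent KD per design is the median over clusters of curves fitted to normalised cluster fluorescence.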

[1] abbreviates: Eterna round: R95, input ligand: microRNA oligo, concentration not stated.
Setting [2] is: input ligand: microRNA oligo, concentration not stated.
[3] abbreviates: Eterna round: R95, input ligand: FMN 200 uM.
The mark [4] stands for this setting: Eterna round: R95, input ligand: none.

Here are results for 31 sequences from the supplement of paper PMC9170038.

Take “CAUAGUAAUUAGGAUAUCUGCCGGCUGAACCGAGGAGAAGGGAUUACAUGAGGAUCACCCAUGUGGUCCUAAGA [Relegebe] (puzzle: Exclusion 6)”: under setting [1], the “apparent KD of MS2 coat protein” value came out at 14.5 nM.

In the case of “CAUAGUUGCUCAGGAUAUCAUACAUGAGGAUCACCCAUGUAAUAAAUGAGAAUUUCGAAUGUAAAUGAGAAGGGAGAAAUCUAC [Ostracism 60 - Jieux - Exclusion NG 2] (Eterna round: R96, puzzle: Exclusion NG 2)”, the “apparent KD of MS2 coat protein” value (input ligand: FMN 200 uM) was 22.5 nM, the “apparent KD of MS2 coat protein” value under setting [2] worked out at 11.6 nM and the “apparent KD of MS2 coat protein” value (input ligand: none) worked out at 14.4 nM.

As to “CAUAUAGUAGUGAGGAUAUGCGAAUAUAUAAUUAAGUAGAAGGCACAUGAGGAUCACCCAUGUAUAUUGUAAAG [EX-4 Malc] (puzzle: Brourd's mod of Exclusion 4)”, the “apparent KD of MS2 coat protein” value under setting [1] was 18.9 nM.

In the case of “CAUGAUCUUCGGAUCAUGUACAUGAGGAUCACCCAUGUUACGAGCAGAUCUUCAUACAAGCUUUUUGCUCGUCUUAU [Sensor v3 - Turn-off variant 1 - 34] (puzzle: Sensor v3, turn-off variant 1)”, the “apparent KD of MS2 coat protein” value by setting is: under setting [3], 34.5 nM; under setting [1], 64.9 nM; under setting [4], 40.4 nM.

As to “CAUGAUUGGGAAGGAUAUUGACCUAGUUAGUGCCGAGAAGGUCCCUUUCACAUGAGGAUCACCCAUGUGAGUCUGGUGUUCGAG [Ex NG1 #97] (Eterna round: R96, puzzle: Exclusion NG 1)”, the “apparent KD of MS2 coat protein” value (input ligand: FMN 200 uM) is 43.1 nM, the “apparent KD of MS2 coat protein” value under setting [2] is 23.7 nM and the “apparent KD of MS2 coat protein” value (input ligand: none) came to 30.5 nM.

For “CAUGGAACGUAGGAUAUCUCACAGCCAGGCUGCAGAGAAGGACGUACAUGAGGAUCACCCAUGUAUGAUCCAAA [Tius] (puzzle: Exclusion 6)”, the “apparent KD of MS2 coat protein” value was determined as 26.9 nM under setting [3], 15.5 nM under setting [1] and 17.5 nM under setting [4].

For the sequence “CAUGUCCAACGAGGAUAUGGUAAAGGAAGUGUACCAGAAGGCGUGCGGACAUGAGGAUCACCCAUGUCGCGCGGUGCGAUGUGG [MOD3 Nando EXNG 1.1] (Eterna round: R96, puzzle: Exclusion NG 1)”, the “apparent KD of MS2 coat protein” value was 37.2 nM (input ligand: FMN 200 uM), 15.8 nM under setting [2] and 29.3 nM (input ligand: none).

Turning to “CAUGUCUGAGGAUAUCGUUAUUUGUACAUGAGGAUCACCCAUGUCCUAUUUAUUAUAUUUCGAGAAGGCAGUGUAU [JR_E5_Sub093] (puzzle: Exclusion 5)”, the “apparent KD of MS2 coat protein” value under setting [1] was found to be 15.6 nM.

For “CAUGUCUGAGGAUAUCGUUUUUUGUACAUGAGGAUCACCCAUGUCCUAUUUUUUUUAUUUCGAGAAGGCAGUGUAU [JR_E5_Sub092] (puzzle: Exclusion 5)”, the “apparent KD of MS2 coat protein” value under setting [1] came out at 32.6 nM.

With “CAUUAGCGAGGAUAUACAUGAGGAUCACCCAUGUGAUCCUAAGGCUGAUGAAGCCUAUGUAGAAGGCGCAAAUU [jl-ex3.4.54 ViennaUCT mod] (Eterna round: R97, puzzle: Exclusion 3)”, the “apparent KD of MS2 coat protein” value is, setting by setting: (input ligand: FMN 200 uM) 107 nM; (input ligand: none) 42.2 nM.

Consider “CCAAGAAUAGGAUAUACACCAUGUCAGCUUCUAUACAACGCACAUGAGGAUCACCCAUGUAGAAGGGUUCUCUC [Exclusion-2-#3] (Eterna round: R97, puzzle: Exclusion 2)”, for which the “apparent KD of MS2 coat protein” value runs as follows: (input ligand: FMN 200 uM) 386 nM; (input ligand: none) 433 nM.

In the case of “CCAAUCAGAGGAUAUGCGAAUAAAUAAAACUUUUUUUUUUAACAUGAGGAUCACCCAUGUAGAAGGCUGUAACC [Ex2 #43] (Eterna round: R97, puzzle: Exclusion 2)”, the “apparent KD of MS2 coat protein” value (input ligand: FMN 200 uM) was 31.5 nM and the “apparent KD of MS2 coat protein” value (input ligand: none) was determined as 25.4 nM.

For “CCACGUCCGUACGUGUACUUGUCUCCUGUGUGCCCGGGUACAUGAGGAUCACCCAUGUCUGUGCUCGCCUUCUGCCC [JR_Sensorv2_tov2_Sub724] (Eterna round: R96, puzzle: Sensor v2, turn-off variant 2)”, the “apparent KD of MS2 coat protein” value (input ligand: FMN 200 uM) was 126 nM, the “apparent KD of MS2 coat protein” value under setting [2] amounted to 84.7 nM and the “apparent KD of MS2 coat protein” value (input ligand: none) worked out at 165 nM.

Take “CCAGCGUAUGUGAGGAUAUGCUGGUCCUUGGAUCAGCAGAAGGCACAUGAGGAUCACCCAUGUGAGAACGUUGG [JL bmx4 3.38] (puzzle: Brourd's mod of Exclusion 4)”: the “apparent KD of MS2 coat protein” value under setting [1] stood at 24.6 nM.

As to “CCAGCGUAUGUGAGGAUAUGCUGGUCCUUGGAUCAGCAGAAGGCACAUGAGGAUCACCCAUGUGGAGACGUUGG [JL bmx4 3.42] (puzzle: Brourd's mod of Exclusion 4)”, under setting [1], the “apparent KD of MS2 coat protein” value is 18 nM.

With “CCAGCGUAUGUGAGGAUAUGCUGGUCCUUGGAUCAGCAGAAGGCACAUGAGGAUCACCCAUGUGGUGACGUUGG [JL bmx4 3.44] (puzzle: Brourd's mod of Exclusion 4)”, the “apparent KD of MS2 coat protein” value was determined as 19.1 nM under setting [3], 143 nM under setting [1] and 411 nM under setting [4].

On to “CCAGGCGUCUUGGCUCGUCUUAUUUGGAGAGGAUUGAUAACAUGAGGAUCACCCAUGUGUGUGGGAGAGUUGCAGUG [JR_SV3TOV2_Sub018] (puzzle: Sensor v3, turn-off variant 2)”, for which the “apparent KD of MS2 coat protein” value is 335 nM under setting [3], 425 nM under setting [1] and 374 nM under setting [4].

As for “CCAGGCUGUGUGAGGAUAUGCUGGUCCUUGGAUCAGCAGAAGGCACAUGAGGAUCACCCAUGUGAGUAGCUUGG [JL bmx4 3.27] (puzzle: Brourd's mod of Exclusion 4)”, the “apparent KD of MS2 coat protein” value under setting [1] worked out at 15.7 nM.

Take “CCAUACUGUAAGCUUCCCAACAUGAGGAUCACCCAUGUGGACCACGGCUUCGGUCAGCUAACCUGCUCGUCGUUGAU [Eternabot (L2) Solution 31] (Eterna round: R97, puzzle: Sensor, turn-off variant 1)”: the “apparent KD of MS2 coat protein” value was found to be 15.2 nM (input ligand: FMN 200 uM) and 16.9 nM (input ligand: none).

As for “CCAUCACAUGAGGAUCACCCAUGUCAGGAUAUCUCAGUGCAUCCACACGGACGCAUCAAGAGAAGGGACAAAAC [Vinxlusion 4 - Jieux - Exclusion 1] (Eterna round: R97, puzzle: Exclusion 1)”, the “apparent KD of MS2 coat protein” value is 35.9 nM (input ligand: FMN 200 uM) and 34.8 nM (input ligand: none).

As for “CCAUCGAGUGUGAGGAUAUGCUGGUCCUUGGAUCAGCAGAAGGCACAUGAGGAUCACCCAUGUGAAUACGGUGG [JL bmx4 3.20] (puzzle: Brourd's mod of Exclusion 4)”, the “apparent KD of MS2 coat protein” value under setting [1] was determined as 28.3 nM.

As for “CCAUUCAGAGGAUAUGCGAAUAAAUAAAACUUUUUUUUUUAACAUGAGGAUCACCCAUGUAGAAGGCUGUAACC [Ex2 #44] (Eterna round: R97, puzzle: Exclusion 2)”, the “apparent KD of MS2 coat protein” value (input ligand: FMN 200 uM) came to 31.4 nM and the “apparent KD of MS2 coat protein” value (input ligand: none) came to 27.6 nM.

For the sequence “CCCAACGUAACAGGAUAUGCUGUUGAGGCCGGGCGACCUACAUGAGGAUCACCCAUGUCGAAAUGGCAGAAGGGUUGCCGGGUA [Quatin] (Eterna round: R96, puzzle: Exclusion NG 2)”, the “apparent KD of MS2 coat protein” value runs as follows: (input ligand: FMN 200 uM) 315 nM; under setting [2], 61.9 nM; (input ligand: none) 94.4 nM.

With “CCCAGUUAGUGAGGAUAUCCUACAUGAGGAUCACCCAUGUAAUAAAUGAGGAUUUCGGGUGUCUAGGAGAAGGCACGGAUAGGC [Ostracism 24 - Jieux - Exclusion NG 2] (Eterna round: R96, puzzle: Exclusion NG 2)”, the “apparent KD of MS2 coat protein” value is, setting by setting: (input ligand: FMN 200 uM) 79.3 nM; under setting [2], 36 nM; (input ligand: none) 44.8 nM.

Turning to “CCCGGGAGUCAGGAUAUCUCCGAGGAGUAUCAGAGAGAAGGGACUACUUGAGGAUCACCCAAGUAGGUGUAAAA [Enleteerre] (Eterna round: R97, puzzle: Exclusion 6)”, the “apparent KD of MS2 coat protein” value came to 28.8 nM (input ligand: FMN 200 uM) and 20.2 nM (input ligand: none).

As to “CCCGGGCCUGUGAGGAUAUGUUUGGGUAAACCCGGGCAGAAGGCACAUGAGGAUCACCCAUGUAAGGGUUUGGG [-29.6, -27.5 kcal, A 23%, 5bbis-5bbis] (Eterna round: R97, puzzle: Brourd's mod of Exclusion 4)”, the “apparent KD of MS2 coat protein” value turned out to be 22.6 nM (input ligand: FMN 200 uM) and 34.5 nM (input ligand: none).

As to “CCCGUACAUGAGGAUCACCCAUGUCAGGAUAUCUAAUCAUGCUGUAAGGCACAUUGAGGGAGAAGGGACAUAUU [EX1 B.29] (Eterna round: R97, puzzle: Exclusion 1)”, the “apparent KD of MS2 coat protein” value (input ligand: FMN 200 uM) is 32.4 nM and the “apparent KD of MS2 coat protein” value (input ligand: none) stood at 20.8 nM.

“CCCGUGUAAGGAUAUCGUUCACUUGACAAAAGUCAAGUGAACGAGAAGGUACAUGAGGAUCACCCAUGUACGGG [-33.8, -33.4 kcal, A 32%] (Eterna round: R97, puzzle: Exclusion 4)”: the “apparent KD of MS2 coat protein” value runs as follows: (input ligand: FMN 200 uM) 418 nM; (input ligand: none) 571 nM.

“CCCUCGGGAGGAUAUGGGUGUUUUUACAUGAGGAUCACCCAUGUAGAGUAAUAUGUGGGUCCAGAAGGCCCAAGGG [-26, -24.7 kcal, 25% A] (Eterna round: R97, puzzle: Exclusion 5)”: the “apparent KD of MS2 coat protein” value is 86.9 nM (input ligand: FMN 200 uM) and 210 nM (input ligand: none).

Turning to “CCGAAAAGGAAGGAUAUGCUAGACGAAAGUCUAGCAGAAGGUCCUACAUGAGGAUCACCCAUGUGUCCUAUCGG [Mat - Exclusion 6 - Eli Mod - D39] (Eterna round: R97, puzzle: Exclusion 6)”, the “apparent KD of MS2 coat protein” value was 49.9 nM (input ligand: FMN 200 uM) and 43.4 nM (input ligand: none).

In the case of “CCGAAGUGGCGGUCCUAUGACAUGAGGAUCACCCAUGUACUUCGCCACGAGCUUUUUGCUCGUCUUAUAGUUCUCGG [Sensor v3, turn-off variant 1 (MOD of Ator)] (puzzle: Sensor v3, turn-off variant 1)”, the “apparent KD of MS2 coat protein” value worked out at 435 nM under setting [3], 32.4 nM under setting [1] and 504 nM under setting [4].
